Results as given in the supplement of paper PMC10126150.
± gives the standard deviation of the averaged measurements.

System: ATP
Experiment: switch fluorescence ratio, 500 uM ATP over buffer (Cy3 cluster intensity, sum of 5 cycles each) (fold (ratio)); higher = stronger signal-on switching upon ATP binding; sequences stand for … in TCGTCGGCAGCGTCAGATGTGTATAAGAGACAGTTTTTTTTTTTTTTTTTTTTTTTTT…TC
Settings: aptamer strand: ATP DNA aptamer (quencher-CACCTGGGGGAGTATTGCGGAGGAAGG + anchor), 100 nM annealed; ATP concentration: 500 uM
Method in brief: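 The fluorescence ratio divides summed target-cycle Cy3 intensity by summed buffer-cycle Cy3 intensity for each cluster and is averaged per switch-domain sequence. Cy3-labelled switching-strand clusters on a modified Illumina MiSeq flow-cell were annealed to 100 nM quencher-labelled ATP aptamer, then imaged in selection buffer and again after 15 min with 500 uM ATP at 22 °C. Five such cycles were run, with NaOH stripping and re-annealing between them, and clusters outside 100-1000 RFU were excluded.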
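Note: ATP exposure 15 min at 22 °C before imaging.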

GATTTGGGT
switch fluorescence ratio: 0.997 ± 0.051

GATTTGGTCA
switch fluorescence ratio: 0.9976 ± 0.0034

GATTTGGTCT
switch fluorescence ratio: 1.04 ± 0.035

GATTTGTAAA
switch fluorescence ratio: 0.99 ± 0.029

GATTTGTGAC
switch fluorescence ratio: 0.977 ± 0.052

GATTTGTGGG
switch fluorescence ratio: 0.994 ± 0.024

GATTTGTTAG
switch fluorescence ratio: 0.977 ± 0.022

GATTTTACGA
switch fluorescence ratio: 0.994 ± 0.052

GATTTTAGTA
switch fluorescence ratio: 1.01 ± 0.033

GATTTTCGTA
switch fluorescence ratio: 0.985 ± 0.025

GATTTTCGTC
switch fluorescence ratio: 0.996 ± 0.032

GATTTTGGGA
switch fluorescence ratio: 0.9815 ± 0.0068

GATTTTGTAA
switch fluorescence ratio: 1.012 ± 0.004

GATTTTGTGG
switch fluorescence ratio: 0.971 ± 0.02

GATTTTGTTC
switch fluorescence ratio: 1.03 ± 0.02

GCAAAAAAAG
switch fluorescence ratio: 0.96 ± 0.077

GCAAAGGGGT
switch fluorescence ratio: 0.996 ± 0.021

GCAAATGGAA
switch fluorescence ratio: 0.982 ± 0.042

GCAACGGCGG
switch fluorescence ratio: 1.01 ± 0.054

GCAACGGGAG
switch fluorescence ratio: 0.988 ± 0.035

GCAACTGATC
switch fluorescence ratio: 1.19 ± 0.031

GCAAGGCGGA
switch fluorescence ratio: 1.03 ± 0.0091

GCAATCGGAG
switch fluorescence ratio: 1.27 ± 0.025

GCAATGGTGG
switch fluorescence ratio: 1.04 ± 0.035

GCAATTGCCT
switch fluorescence ratio: 0.989 ± 0.029

GCACCACCGT
switch fluorescence ratio: 1.15 ± 0.014

GCACCATCCA
switch fluorescence ratio: 1.03 ± 0.013

GCACCTGGAT
switch fluorescence ratio: 1.01 ± 0.027

GCACCTGGGC
switch fluorescence ratio: 0.991 ± 0.039

GCACGAGCCC
switch fluorescence ratio: 1.316 ± 0.008

GCACGAGGGG
switch fluorescence ratio: 0.979 ± 0.047

GCACGGACAT
switch fluorescence ratio: 1.4 ± 0.031

GCACGGTACG
switch fluorescence ratio: 1 ± 0.031

GCACGGTCGG
switch fluorescence ratio: 1.009 ± 0.0021

GCACGTATTC
switch fluorescence ratio: 1.113 ± 0.0047

GCACGTGGTC
switch fluorescence ratio: 1.04 ± 0.019

GCACGTGTTC
switch fluorescence ratio: 1.119 ± 0.0096

GCACTAGACT
switch fluorescence ratio: 1.07 ± 0.029

GCACTCGGGA
switch fluorescence ratio: 1.03 ± 0.027

GCACTGGTAA
switch fluorescence ratio: 1.023 ± 0.0071

GCACTTGGTG
switch fluorescence ratio: 1.02 ± 0.024

GCACTTTAGC
switch fluorescence ratio: 1.03 ± 0.018

GCAGACCTAT
switch fluorescence ratio: 0.989 ± 0.058

GCAGACGTTC
switch fluorescence ratio: 1.012 ± 0.005

GCAGAGGGTC
switch fluorescence ratio: 0.9998 ± 0.0066

GCAGAGTGTT
switch fluorescence ratio: 1.02 ± 0.027

GCAGATTAGC
switch fluorescence ratio: 1.033 ± 0.0044

GCAGCAAAAG
switch fluorescence ratio: 1.029 ± 0.0029

GCAGCAATTG
switch fluorescence ratio: 3.03 ± 0.19

GCAGCACGCA
switch fluorescence ratio: 1.03 ± 0.032

GCAGCTGGTT
switch fluorescence ratio: 0.994 ± 0.026

GCAGCTTCGG
switch fluorescence ratio: 0.984 ± 0.014

GCAGGAAGAC
switch fluorescence ratio: 3.48 ± 0.81

GCAGGACGAC
switch fluorescence ratio: 2.38 ± 0.49

GCAGGAGCCT
switch fluorescence ratio: 1.01 ± 0.011

GCAGGATGGG
switch fluorescence ratio: 0.98 ± 0.019

GCAGGCCGAG
switch fluorescence ratio: 1.05 ± 0.037

GCAGGGGAAG
switch fluorescence ratio: 0.99 ± 0.019

GCAGGGGCTC
switch fluorescence ratio: 1 ± 0.027

GCAGGGGGTC
switch fluorescence ratio: 1 ± 0.021

GCAGGGTTCT
switch fluorescence ratio: 0.9721 ± 0.0021

GCAGGTTTGG
switch fluorescence ratio: 0.991 ± 0.033

GCAGTAGTGG
switch fluorescence ratio: 1.2 ± 0.33

GCAGTATCAC
switch fluorescence ratio: 1.05 ± 0.028

GCAGTATGGT
switch fluorescence ratio: 0.985 ± 0.016

GCAGTGCGCC
switch fluorescence ratio: 1.2 ± 0.05

GCAGTTAAGT
switch fluorescence ratio: 1 ± 0.037

GCAGTTAGGG
switch fluorescence ratio: 0.995 ± 0.079

GCAGTTGGTA
switch fluorescence ratio: 0.989 ± 0.02

GCAGTTGGTG
switch fluorescence ratio: 0.958 ± 0.043

GCAGTTTTGG
switch fluorescence ratio: 0.992 ± 0.015

GCATAAAACT
switch fluorescence ratio: 1.04 ± 0.014

GCATAAACGC
switch fluorescence ratio: 1.06 ± 0.044

GCATAAAGGA
switch fluorescence ratio: 0.9684 ± 0.0075

GCATAAGGTT
switch fluorescence ratio: 0.993 ± 0.031

GCATAGCGCC
switch fluorescence ratio: 1.04 ± 0.013

GCATAGGGCG
switch fluorescence ratio: 1.01 ± 0.018

GCATATCTAG
switch fluorescence ratio: 1.03 ± 0.041

GCATCAATTT
switch fluorescence ratio: 1.016 ± 0.0012

GCATCGGGGT
switch fluorescence ratio: 1 ± 0.032

GCATCGTAGA
switch fluorescence ratio: 1.07 ± 0.015

GCATCTACGG
switch fluorescence ratio: 1.02 ± 0.019

GCATCTCAGC
switch fluorescence ratio: 0.991 ± 0.038

GCATGAGCTG
switch fluorescence ratio: 0.981 ± 0.014

GCATGATGCG
switch fluorescence ratio: 0.994 ± 0.013

GCATGATGGC
switch fluorescence ratio: 1.03 ± 0.063

GCATGGAAGG
switch fluorescence ratio: 1.013 ± 0.0065

GCATGGGGTA
switch fluorescence ratio: 1.05 ± 0.051

GCATGGTGGC
switch fluorescence ratio: 1.013 ± 0.0028

GCATGTGGCT
switch fluorescence ratio: 0.994 ± 0.024

GCATGTGGGT
switch fluorescence ratio: 0.986 ± 0.017

GCATGTTGGG
switch fluorescence ratio: 1.01 ± 0.029

GCATTAAAAT
switch fluorescence ratio: 0.9578 ± 0.0013

GCATTACCGG
switch fluorescence ratio: 1.03 ± 0.04

GCATTAGGGC
switch fluorescence ratio: 1.07 ± 0.14

GCATTATATG
switch fluorescence ratio: 1 ± 0.03

GCATTATGGG
switch fluorescence ratio: 1.02 ± 0.034

GCATTATTCA
switch fluorescence ratio: 1.04 ± 0.014

GCATTGAGGT
switch fluorescence ratio: 1 ± 0.013

GCATTGCGGC
switch fluorescence ratio: 0.991 ± 0.019

GCATTGGATA
switch fluorescence ratio: 1 ± 0.014

GCATTTTGGG
switch fluorescence ratio: 0.986 ± 0.033

GCATTTTGTT
switch fluorescence ratio: 0.986 ± 0.019

GCATTTTTAC
switch fluorescence ratio: 1.19 ± 0.023

GCCAAAAGGG
switch fluorescence ratio: 1.015 ± 0.008

GCCAAAGGGA
switch fluorescence ratio: 1.01 ± 0.063

GCCACGAGGG
switch fluorescence ratio: 1.025 ± 0.0062

GCCACGGAGT
switch fluorescence ratio: 0.964 ± 0.015

GCCACTTACA
switch fluorescence ratio: 1.36 ± 0.025

GCCAGACGTG
switch fluorescence ratio: 0.995 ± 0.017

GCCAGGGGAG
switch fluorescence ratio: 1.1 ± 0.12

GCCAGGGGTG
switch fluorescence ratio: 1.47 ± 0.033

GCCAGGGTGG
switch fluorescence ratio: 1.01 ± 0.039

GCCAGTCTTT
switch fluorescence ratio: 1 ± 0.012

GCCATATACA
switch fluorescence ratio: 1.035 ± 0.01

GCCATGGCTT
switch fluorescence ratio: 1.01 ± 0.0039

GCCATGTTGG
switch fluorescence ratio: 1.004 ± 0.0033

GCCATTAAAC
switch fluorescence ratio: 0.972 ± 0.03

GCCATTAGAC
switch fluorescence ratio: 1.04 ± 0.049

GCCATTAGGA
switch fluorescence ratio: 1.015 ± 0.0049

GCCCAAAAGA
switch fluorescence ratio: 1.02 ± 0.02

GCCCACCGAT
switch fluorescence ratio: 1.06 ± 0.031

GCCCACGGGA
switch fluorescence ratio: 1.07 ± 0.039

GCCCAGTCAT
switch fluorescence ratio: 0.997 ± 0.023

GCCCAGTCCT
switch fluorescence ratio: 1.03 ± 0.02

GCCCGGGGTA
switch fluorescence ratio: 1.09 ± 0.12

GCCCGTCTGA
switch fluorescence ratio: 0.985 ± 0.075

GCCCGTTACG
switch fluorescence ratio: 1.02 ± 0.055

GCCCGTTTTT
switch fluorescence ratio: 1 ± 0.029

GCCCTGCAAT
switch fluorescence ratio: 1.17 ± 0.056

GCCCTTGGTT
switch fluorescence ratio: 1.02 ± 0.074

GCCCTTGTTT
switch fluorescence ratio: 1.03 ± 0.046

GCCGAAAATA
switch fluorescence ratio: 0.988 ± 0.012

GCCGAGGGGA
switch fluorescence ratio: 1.05 ± 0.025

GCCGAGGTGA
switch fluorescence ratio: 1.09 ± 0.13

GCCGATAGGT
switch fluorescence ratio: 1.08 ± 0.12

GCCGATGCGG
switch fluorescence ratio: 0.988 ± 0.013

GCCGCAGGGA
switch fluorescence ratio: 2.3 ± 1.9

GCCGCATTGA
switch fluorescence ratio: 2.01 ± 0.11

GCCGCCGGGG
switch fluorescence ratio: 0.996 ± 0.032

GCCGCTAAGG
switch fluorescence ratio: 0.9968 ± 0.0035

GCCGGGAAAC
switch fluorescence ratio: 1.043 ± 0.0036

GCCGGGAGTC
switch fluorescence ratio: 1 ± 0.02

GCCGGGGAGT
switch fluorescence ratio: 0.989 ± 0.027

GCCGGGGCAA
switch fluorescence ratio: 1.33 ± 0.024

GCCGGGGCCT
switch fluorescence ratio: 1.03 ± 0.042

GCCGGGGGCG
switch fluorescence ratio: 0.982 ± 0.051

GCCGGGGGGA
switch fluorescence ratio: 1.03 ± 0.086

GCCGGGTTGC
switch fluorescence ratio: 1.01 ± 0.013

GCCGGTACAA
switch fluorescence ratio: 1.01 ± 0.073

GCCGGTCGGG
switch fluorescence ratio: 0.985 ± 0.013

GCCGGTTTTC
switch fluorescence ratio: 1.03 ± 0.044

GCCGTGTATG
switch fluorescence ratio: 1.06 ± 0.14
